A protein production outcome set (Wang et al. 2014)

Test: label from the status in PepcDB records
In the case of “MASTYYELLGVSKYASEADIKKAFKDLAKKYHPDKHPGEAFYEEHFKKINEAYQILSDKQARQNYDFRLQYGQHAQQSRPAQNQQRAYQRPTATYQQPKYRRPKPAASGTSAYQKKLNTYYISIAIGAVVFIFACYWFYSFMNTYSSKKYFNEGLKAESRGNDMQALSFYFSALEINLKNPEVNEKIGDLYSKFATNSSYDLFYYDLELQKNFQDPDFDATSIELLKKTRNVDSLAALYYKRSFENFEMPVDKRRVGLKSIKACLKTGDYKQAADNLYKVSFLPDYKRDDSVLYYRGDVIFQTRFYDQARDNYRKFLALHPTSAEASVKIAVCHYNEHNEDYALAQLAKTIKRFPANGEAYYFLGQIHLRNNDTLKACSNFYKADSLHVLAAKPSLYKYCRN”, the protein production is reported as “failed”.
With “MASWPYCNHKRGLNGYGVFFSIFFGSGAYNAPVRIAVLADIHGNADALRAVLKDAAEQGAERLIVNGDVVNRGPDSVQVMEELLARDDTSFVLGNHDDLLRLWHTRSDKLPQDWYDDPFWGATAWSTEQLHAAGLLDVPGDWPLTARLSVPGLPDVLLAHGTPDDYRRGLSERTDPALVRRIADESGAGVLVGSHIHRQADALVGGVRVLNTGAVGSPADGDPRAQYLLLTATPQGWQTELRRVPYDRSGVLQRFETSGLLDTGLSARIFRDELVTARSLYTPYWEWTETGGCPRDTASWEQFAQDWT” the protein production was “failed”.
In the case of “MASYVFIRVSKIRKGYFPVLLAIGFAITFAEGFILFLVNFGAIPTNGPTIQLVPQIIMQNPNPLIRFYGTLILLCFLNTIVLSIFYATIAKLLPKFSG”, the protein production is reported as “failed”.
With “MATAENTELIDRFEEFYRNYYRNEIGELAQKYPNDQKSLYIDWDDLYRFDPDLADDYRTKPEQIQEYAEEALRLYDLPVDVSLGQAHVRVRNLPESEDIRDLRHEHHGNLVAVRGIIRKATDVRPKVIEAAFECQRCGTLTRIPQTAGDFQEPHDCQGCERQGPFRLNTDQSQFIDAQKLRVQESPEGLRGGETPQSIDINIEDDITGHVTAGDHVRVTGILKLDQRGNDNEKSPMFDIYMEGVSVEIEDEQFEDMEITDADKTEIVELSSEPDIYDKMVGAIAPSIYGYEKEKLAMMLQLFSGVTKELPDGSRIRGDLHMLLIGDPGTGKCVHGDTRVTLADGHERPIREVVESNLDDPKPVDDGVWDTVDFDVPSLQSDGTVATQNATKVWKRKAPETLYRIRTATGRELDVTPSHPLFVQSDGRFQARKAEELESGTHVAVPRKVSTNACNELDVTFRQSQAHNRIDLDLPPQWTPELARLIGYIVAEGYVEQRPDNTGYVSITNNDREVLDDAKSVLETLNLNVTERSSHEGKTARELLCSAGEFVSFLASLDETLLQSSAERRVPQDIMRASDNVVTGFIRGYIEGEGHVSTSQREITVASMSKPLLEDVRTLLVTQGITAQLQPRNNGSYRLRISGQSFHDYAEQIGFITARKTEACRQFEGTHGNTNLDIVPNLGPELRRIREALGLTQSECGLPRSTYQHYERGRRNPSRDSLESVLDAFETRLAEMNNDTPISDTARSDGGGTGSLRQDLNGLAALVEGDIAWDRIESIEPIEHDEKWVYDLEIEGTHNYLTNGVVSHNSQMLSYIENIAPRSVYTSGKGSSSAGLTAAAVRDDFGDGQQWTLEAGALVLADQGIAAIDELDKMSPEDRSAMHEALEQQRISVSKAGINATLKSRCSLLGAANPKYGRFDQYEPIGEQIDLEPALISRFDLIFTVTDKPDEEKDRNLAEHIIQTNYAGELHTHRTENPTSNFSEEEVGTVTEEVAPTIEPDLLRKYVAYAKRNCFPTMTEEAKSRIEDFYVDLRLKGQDEDAPVPVTARKLEALVRLAEASARIRLSDTVDEADADRAVDIAHYCLKEIGVDPETGEFDADVVETGQSKTQRDRIQNIKGIISDIEDEYDEGAPADVVIERAEEVGIDESKAEHEIDKLKQKGEVYEPRTDHLRTT” the protein production was “failed”.
In the case of “MATEISTRGRQRAIGHEEYSLYSSLSEEELLQMAIEQSLADKTRGPTPAEASASSQTNHQPGHFHPWTRSPSSPENPPARAPLGLFQGVMQKYSSNLFKTSQMAAMDPVLKAIKEGDEEALKIMIQDGKNLAEPNKEGWLPLHEAAYYGQLGCLKVLQQAYPGTIDQRTLQEETALYLATCREHLDCLLSLLQAGAEPDISNKSRETPLYKACERKNAEAVRILVRYNADANHRCNRGWTALHESVSRNDLEVMEILVSGGAKVEAKNVYSITPLFVAAQSGQLEALRFLAKHGADINTQASDSASALYEASKNEHEDVVEFLLSQGADANKANKDGLLPLHVASKKGNYRIVQMLLPVTSRTRVRRSGISPLHLAAERNHDAVLEALLAARFDVNAPLAPERARLYEDRRSSALYFAVVNNNVYATELLLLAGADPNRDVISPLLVAIRHGCLRTMQLLLDHGANIDAYIATHPTAFPATIMFAMKCLSLLKFLMDLGCDGEPCFSCLYGNGPHPPAPRPGRFHDAPVDDKAPSVVQFCEFLSAPEVSRWAGPIIDVLLDYVGNVQLCSRLKEHIDSFEDWAVIKEKAEPPRPLAHLCRLRVRKAIGKYRIKLLDTLPLPGRLIRYLKYENTQ”, the protein production is reported as “failed”.
In the case of “MATFFSLALYAGSFTFILREGGIPFYYLGVFFAIAVILYLIFNSLSREYVGRAGDAIIVPVSILMVAVAFVLVYISQSIPIISVSVALFTVSLIMFYNSTVRNEVSISTNERIFMGGAGLGGFIGLIVAGVFPGKMSVLDSYMAIIMLAVGLAAVFVFFRRPTGRFSIADAFHVFVRPFNSMEKIRTIEKKLLLLAVSLDEIFVWIAIGASFPFVISAGLGSGMSRPAVMFSVAAAIIIGAALVYVFESSNIPATPFFYPVKDLILVAGLLLLSFMYPASYVAGMIFLALLPVAFIGSVRFLKSQFPSSFDFRQITSFFRNPIMVIAPLMGSILWAVSGAMLFLTAMAFAIFALVIGIIVITNPKIFKVSDPYETANN”, the protein production is reported as “failed”.
In the case of “MATITRTDRLILVPLTVELEDEAHQIYSDSRIWEHRPQARHTNVRVTRDIIKRTNESWGKKDLGPWGVYLRDRPSEFVGVGGVELIDGKVWDLKYRLRPDLWGNGYATEISNAATLATKRIDDSLPLTARVTTNHPASFRILEKLGLTPVWEGRRVGTEDDPNEPDVRIYSDRPLSDEILEMLKQRP”, the protein production is reported as “failed”.
For “MATKSSDSSHKQSPPSFRKSVEIKATHDQFFVWREFLWGGIAGAFGEGMMHPVDTLKTRLQSQIIMNATQRQKSILQMLRTVWVGDGLKGFYRGIAPGVTGSLATGATYFGFIESTKKWIEESHPSLAGHWAHFIAGAVGDTLGSFIYVPCEVIKQRMQIQGTSSSWSSYISRNSVPVQPRGDMYGYYTGMFQAGCSIWKEQGPKGLYAGYWSTLARDVPFAGLMVVFYEGLKDLTDQGKKKFPQYGVNSSIEGLVLGGLAGGLSAYLTTPLDVVKTRLQVQGSTIKYASYKGWLDAVGQIWRKEGPQGFFRGSVPRVMWYLPASALTFMAVEFLRDNFREKSNNNNNVVSNLSIERKTSSTSVHEG”, the protein production was “failed”.
For “MATLNKALTRPAAIAGIPIVPFVIVSGAIVLLSVYLSYYLVLLLIPAWLEMKAKARTDIHYFGLLWLAFKTRGRFATNKYFGANAMLANRYDAVDVSEFIEKMKLNERVTLDKHIPYSSHVHPQVIRNRHGDLVSTWELGGTVFECEDEHHLTLMATHLNNVIRSYEGLPITFYLHRIREKYQDAFAASSGIPFSDDVTALYYQPIKEKPLWRHRLFFTLCYAPFSRLEKKAMKAQPSGKRTAALDGALKVMLEHRAALASALSRYTATPLGVYEENGRVYSSQLSFYHRLLTGQWQKVAVTRSPFYDILSTPDVFFTTDTAECQTVSGSRFFRSLEIKDYSPDTATGLLDALLYAESEYVMTQSFTCMARDEAQNHIRLAEKRLNSAADDAISQREELIVLRDLLQSGHVSCGKYHFSLLVSSDSADQVVKDVNALAQPFADLGIMTTLSTLSLPAAYLAQLPGVYTLRPRLVAVSSQNFADMASLHNFHPHKRNGNPWGEAITIMTSPGGGGYYLNLHDSQAGRDDFNEKTPGNTAIIGKTGSGKTMLMTVMQQLMQKYRNPATFSESAPHKRLSTVYFDKDRAAEMAIRQMGGRYFRLRTGVPTGFNPFALAPTKRNISFIKRLVRMLCRRNSKPLDPRDEERISTAVDTIMLDYPPEYRRYGITRLLEVLPEPPTKEARTNGLRIRLKQWAQGGEFGWVFDNETDTFDISDIDNVGIDGTEFLDDDDIRGPITFYLLYRVTGLLDGRRLVMFMDEFWKWLADVEFSRFSLNMLKVIRKLNGIFIPATQSPDEIVRHPIAPAIIEQCGTQIFLANPKASRADYVEKMKVPDSVYDIVRHLDPGERYMVVLKTPLRAGETRPFVSMAKMDLSGLGKITRMLSGSEDNLKLFDALYQEGMQPDDWKDAFLEIAL”, the protein production was “failed”.
For “MATPAYMSITGTKQGLITAGAFTEDSVGNTYQEGHEDQVMVQGFNHEVIIPRDPQSGQPTGQRVHKPVVITKVFDKASPLLLAALTSGERLTKVEIQWYRTSAAGTQEHYYTTVLEDAIIVDIKDYMHNCQDPGNAHFTHLEDVHFTYRKITWTHEVSGTSGSDDWRSPVAG”, the protein production was “not failed”.
In the case of “MATPKLEIGVIGLGKFGLQVSRTLVELGHSVVGIDSTEGRIRQAQDILSQVYQGNAADPAVLQQLRFQDLDCVIVSVGNSMETSLLVTLNLQEIGVRKIWVKAVSTEHKKVLTRLGVDHVILPEHDVATHLAHRLVNPGMLDLLPLGGGGQILLQELTVDKWAGRTLLDLRLANEHGVMVVAVKPAAFREYRFVPAAHEVLQQGDKLVVIGRHEDVLRLEP”, the protein production is reported as “failed”.
In the case of “MATPVVTKTAWKLQEIVAHASNVSSLVLGKASGRLLATGGDDCRVNLWSINKPNCIMSLTGHTSPVESVRLNTPEELIVAGSQSGSIRVWDLEAAKILRTLMGHKANICSLDFHPYGEFVASGSQDTNIKLWDIRRKGCVFRYRGHSQAVRCLRFSPDGKWLASAADDHTVKLWDLTAGKMMSEFPGHTGPVNVVEFHPNEYLLASGSSDRTIRFWDLEKFQVVSCIEGEPGPVRSVLFNPDGCCLYSGCQDSLRVYGWEPERCFDVVLVNWGKVADLAICNDQLIGVAFSQSNVSSYVVDLTRVTRTGTVTQDPVQASQPQTQQTPNPGVSLRRIYERPSTTCSKPQRVKHNSESERRSPSSEDDKDERESRAEIQNAEDYNEIFQPKNSISRTPPRRSEPFPAPPEDDIATAKEASKPSPAMDVQLPVPSQEVPARPSVMTSTPAPKGEPVIIPATRNEPIGLKASDFLPAVKVPQQAELVDEDAMSQIRKGHDTMCVVLTSRHKNLDTVRAVWTTGDIKTSVDSAVAINDLSVVVDLLNIVNQKASLWKLDLCTTVLPQIEKLLQSKYESYVQTGCTSLKLILQRFLPLITDILAAPPSVGVDISREERLHKCRLCFKQLKSISGLVKSRSGLSGRHGSAFRELHLLMASLD”, the protein production is reported as “failed”.
With “MATRGSRSEKVKRIFQQFDGNHDGGLNREEMAALVVAVNPRVKFSDEQINAILDEVFRTYAEFIDPNKGLTYDGLLRTYDDGAGDVDRDFDALGLELNADETTIKGSEAASSSSITDERAVEAQKKQRTAAWAVSPNHGIVFDETWKLVDDLEILVKRLKSKQEKDGKLKADNNNNNVDAFSDAGWSRELGPSSEISEKRIYWEESSHDYGVFVKELGVLRSKADGARSREEAFDGHMAIGRVLYEHQLFKEALVSFKRACELQPTDVRPHFKAGNCLYVLGKCKESKDEFLLALEAAESGGNQWAYLLPQIYVNLGIALEGEGMVLSACEYYREAAILCPTHFRALKLLGSALFGVGEYRAAVKALEEAIYLKPDYADAHCDLASSLHSMGEDERAIEVFQRAIDLKPGHVDALYNLGGLYMDLGRFQRASEMYTRVLTVWPNHWRAQLNKAVSLLGAGETEEAKRALKEALKLTNRVELHDAISHLKHLQKKKGKNNGNGNGGEGPFIVVEPSKFKTVGEKTTLRPDLATALQIRAFQRVTRLGKCDVEAVRKEMRDNDVPVSYSGSGGPTKSIRKPNLEEILRRLLSSLKPDTFQGAIKAINEKILALLDDSGSGRVDMGMFYAVIAPLCGGHSDKRKRVAFDALLWRPVNEGSSQITKTDAVKYIKLLRAIYIPSHGMSEMLEVHGEEEAESSVTVTFNQFLAMFDDPDWGFGIMSTILKLEANDRNRHGNQVCSVCRYPVIGSRFKEVKARFSLCNQCYGEGKVPPSFKQEEYKFREYESEAEAMKAKCVCFSMQSHKKAIAT” the protein production was “failed”.
